According to patent US20060089489A1 (MATSUSHITA ELECTRIC INDUSTRIAL, published 2006):

Target: the molecule itself
Test: CD spectrometry of 300 uM peptide in phosphate buffer pH 7.5 (self-assembly into nanofiber)

B1: Glu-Phe-Ile-Val-Ile-Phe-Lys peptide (EK7aa) (peptide)
peptide: EFIVIFK
notes: Synthetic designed peptide that self-assembles into amyloid-like nanofibers
binding result: binds
